Kd, koff and kon data for 1 molecule are collected here from publication PMC6117920, “Chitinase 3-like 1-CD44 interaction promotes metastasis and epithelial-to-mesenchymal transition through β-catenin/Erk/Akt signaling in gastric cancer” (Journal of Experimental & Clinical Cancer Research : CR, 2018).

Assay [1] addresses T1, recombinant human CHI3L1 (human, UniProt P36222 22-383).
T1 construct: Chitinase 3-like-1 (CHI3L1, YKL-40), human, recombinant; also called rhCHI3L1; RhCHI3L1; source: bought: R&D Systems (Cat. #2599-CH)
Description: BLI; Octet K2; CHI3L1 or IL-13Rα2 ECD immobilised on AR2G biosensor by amine coupling; CD44v3 peptide (15.6, 31.1, 62.5, 125, 250 μM) in the mobile phase; 20 mM HEPES, 150 mM NaCl, 0.05% Tween-20, 1 mM MgCl2 (or 5 mM EDTA); pH 7.4 in the results (pH 7.5 in the methods); heterogeneous ligand model. To be noted: both partners purified.

Assay [2] addresses T2, recombinant human IL-13Rα2 ECD (human, UniProt Q14627 27-343).
T2 construct: Interleukin-13 receptor alpha 2, human, extracellular domain; also called rhIL-13Rα2 ECD; Interleukin-13 receptor alpha 2; source: bought: Sino Biological (Cat. #10350-H08H-20)
T2 sequence (looked up): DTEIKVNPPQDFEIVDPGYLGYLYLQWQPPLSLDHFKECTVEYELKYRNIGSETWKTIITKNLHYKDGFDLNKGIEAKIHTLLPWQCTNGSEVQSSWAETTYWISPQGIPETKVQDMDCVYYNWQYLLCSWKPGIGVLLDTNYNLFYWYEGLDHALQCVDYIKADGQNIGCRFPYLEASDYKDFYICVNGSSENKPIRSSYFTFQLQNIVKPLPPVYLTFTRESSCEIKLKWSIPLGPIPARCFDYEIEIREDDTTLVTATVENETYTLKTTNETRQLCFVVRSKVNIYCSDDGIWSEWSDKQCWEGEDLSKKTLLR
The description is as above. To be noted: both partners purified.

T1 sequence (P36222 22-383): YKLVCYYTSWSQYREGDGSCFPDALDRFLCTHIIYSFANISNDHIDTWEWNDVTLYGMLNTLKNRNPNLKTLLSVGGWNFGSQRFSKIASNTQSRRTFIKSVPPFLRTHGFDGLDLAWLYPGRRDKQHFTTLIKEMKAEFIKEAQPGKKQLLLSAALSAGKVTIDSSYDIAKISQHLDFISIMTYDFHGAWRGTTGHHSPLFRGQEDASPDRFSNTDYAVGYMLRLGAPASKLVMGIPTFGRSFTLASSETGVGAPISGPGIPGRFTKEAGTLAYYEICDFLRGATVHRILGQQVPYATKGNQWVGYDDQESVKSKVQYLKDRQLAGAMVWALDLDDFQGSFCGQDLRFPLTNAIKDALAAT

B1: CD44v3 peptide (peptide)
peptide: GWEPNEENEDERDRHLSFSGSGIDDDEDFISSTI
notes: peptide fragment of the v3 domain of CD44; contains the SGSG heparan sulfate assembly motif; also called peptide fragment of CD44v3 domain; source: synthetic peptide (ChinaPeptides Co., Ltd.)
One may read the Kd as a measure of binding affinity in units of concentration. As usually defined, the koff is the first-order rate constant of dissociation. In general, kon refers to the rate constant with which the complex forms. On to B1, for which, in assay [1], the dissociation constant Kd was 443 ± 21.4 µM, the koff was 0.013 s⁻¹ and the kon stood at 29.4 ± 1.39 M⁻¹ s⁻¹. Besides, in assay [2], the dissociation constant Kd was 563 ± 15.9 µM, the koff worked out at 0.0162 s⁻¹ and the kon is 28.8 ± 7.66 M⁻¹ s⁻¹.
